Target: T1, murine 4-1BBL–CD8 fusion protein (mouse, UniProt P41274 104-309)
T1 sequence (looked up): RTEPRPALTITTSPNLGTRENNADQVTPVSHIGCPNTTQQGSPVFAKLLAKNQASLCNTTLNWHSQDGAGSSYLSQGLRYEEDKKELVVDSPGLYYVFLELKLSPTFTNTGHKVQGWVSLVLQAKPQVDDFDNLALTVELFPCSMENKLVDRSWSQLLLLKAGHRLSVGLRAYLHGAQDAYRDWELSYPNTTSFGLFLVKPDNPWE
Assay: SPR

Kd: 1.16 nM
koff: 0.000213 s⁻¹
kon: 183000 M⁻¹ s⁻¹
B1: murine 4-1BB–Ig fusion protein (Fc fusion, mouse, UniProt P20334 22-185, looked up)
chain: GAVQNSCDNCQPGTFCRKYNPVCKSCPPSTFSSIGGQPNCNICRVCAGYFRFKKFCSSTHNAECECIEGFHCLGPQCTRCEKDCRPGQELTKQGCKTCSLGTFNDQNGTGVCRPWTNCSLDGRSVLKTGTTEKDVVCGPPVVSFSPSTTISVTPEGGPGGHSLQ

Source: PMC2198949 (The Journal of Experimental Medicine, 1997)
